Assay: soluble on expression in E. coli; label from the status in PepcDB or PDB records

Row | Sequence | soluble on expression in E. coli
1 | MAHHHHHHMPNNDSHDAQLLRHYAQFFPNVLFTSEEEMEKYCQDARPDAVKKVLDLPEGEEVPEDAMNDPRAHLYILKHIVGRNATTAAFVALRGSDKQKVVAKFIMLNDEKQAAYARSEVHCLAACDHFGIVKHYDDLKSEDKLLLIMEYGSGGDLNKQIKQRLKERLPFKEHEAGLLFYQIVLALDEVHSRKMMHRDLKSANIFLMPTGIIKLGDFGFSKQYTDSVSLDVGSSFCGTPYYLAPELWERKRYSKKADMWSLGVILYELLTLHRPFKGPSQREIMQQVLYGNYDPFPCGVSDGMKAVMEPLLSKDPALRPTTTQLLHTELMKYVANIFEEIVRNSEVIEKHDKERILRQLAESRAKAPPPNSIQAGAVSNDVVREGYLLKYSSDMKWKKRYFSIKNGQLRISLTDNPEKDGVSPKSASLETVNDVFPVPEAYCRSNPHQLVIWFTNGQKIIAMAKSAEERDQWISDFQRACGM | soluble
2 | MIEIIETGPFNTVQDLGRPGYRDVGVSAGGAMDPLAVKIGNILLGNFDDAAVIEVQTFPFKMRFEARAAFAVTGADGQMLLDGRELLPWCTHVAAEGQVLELKQPPQFARAYISLTGGVDVPVLMGSRSTALRGGFGGNAGRPLARGDRLKIGTVADALPLPASGIAVIEPATALRDVFAPPIEGILQIRAIPAGEHGLFASDGEAFWSQTWRISSRSDRTGYRLSGEPIKPTETIEMRSHGVVPGVVQVPPGGEPIIQMSDANTAGGYPKVAGVIECDLWRLGQARIGSRLQFVRSTHAEARVVEQAVASYLEDIRQTSHMVKRALKAMAAAALEHHHHHH | not soluble
3 | PNVVKMNKPFISLCPEITRAHALTLMDWLEDEHVTRHLSDSRHVSRFIEQVIDRVQLPVLTHLFNQGGRFFMAYDRHDVPVGFVRLVKTGSDCEIVLVIGNRDNWGRKLGASAIREGMKLAFFEMRAARLIAKVHPDNERSLNAFLRCGFVLESETP | not soluble
4 | SNNCKENFLTSRYNKPVDEKQYNIPGKVTITTLQNIPVIYKRIVGSYKELELTNPLSELFQYGMEHDLLDKDSSFPLTIYHSHPDITTADNQRASSCIIIKQNVKQLDSEEIGLMEIPSGLYGVIHFEIRQKEYPDAWDFVYGNWLPSSGYLPANSFPFEVYLNNPLEDPLQKHIVDIYIPIEPIN | not soluble
5 | SNAIMAKTAKVAVSQIVEHPALDATRQGLLDGLKAKGYEEGKNLEFDYKTAQGNPAIAVQIARQFVGENPDVLVGIATPTAQALVSATKTIPIVFTAVTDPVGAKLVKQLEQPGKNVTGLSDLSPVEQHVELIKEILPNVKSIGVVYNPGEANAVSLMELLKLSAAKHGIKLVEATALKSADVQSATQAIAEKSDVIYALIDNTVASAIEGMIVAANQAKTPVFGAATSYVERGAIASLGFDYYQIGVQTADYVAAILEGKEPGSLDVQVAKGSDLVINKTAAEQLGITIPEAVLARATSTK | soluble
6 | MKETCDLLAFGAHPDDVEIGMGGTIAKYVRRGYRIVICDLTQAELSSNGTVDERQREAAEAARRLGVSERFNLGLPDRGLYVEEEAIRQIAAVIRRYRPRLVFAPYWEDRHPDHGRCARLVEEAVFSAGIRRYGAGELGDAHRVRAVYYYMINAFCRPHFLIDISETINDKLDSLRAYESQFQKRPGSVDTPLTNGYIEMIESRERWFGQQIGAAYAEGFLTKTPIHLSNLFEEER | soluble
7 | SYTEVRELVNFVCRYLFGHIPRRPVGIFGAELGNYLVSHFSSTWDVHHPKNGEMKRMINTTTSLCFASSAEEAGVPPSDVLRLLPTNMIIFANPGHVFVRLSENGIETPIWIGDVNCDENYQSVPEYVVRTAAIRAEPCSNLGAAGKSVLVGKKPLLTNDKAALEMVNTMYSPLAREKCDDINANLSHLREMYPFRFVYKPSSAQTFSGVEFSQTRFGSSKSRPDLQTMDVIKYLSSQQVSSSSSPSFTYSSINDQMRYSPRF | soluble
8 | MGSDKIHHHHHHTKRWEEGKMSNFEYLTMLNLFAGRTIHDSSSSPIFPRILAKFGDKSVDLQDKTIYRKLDRPVAAQDPVSVEKHKEHYNELKENEEISHLTPYHFGSMCSNRGVVSFFNIRLLPFGEEAIELQDGRFDFPDRLFHNIESGLGLGKIESSNDYKELVPELFTTVEVLRNDNGNQFGEKQNGETVNDVDVPQWCYMDEKAVHENFIYLHRHALESEIVQSMLHHWIDLVFGYKSRGKSAHDAINVYHPAVYPGNSPPPSFDRVMTNAYEANQKTLGTAPIQLFTQSHPKR | not soluble
9 | MRRVMIPKPGGGERPLGIPTIRDRVVQAAAKIVLEPIFEADFEDGAYGYRPRRNAVDAVKEVHRLMCRGYTDVVDADLSKYFDTIPHSDLLKSVARRIVDRNVLRLIKLWLRVPVEERDSNGKRRMSGGKSNKCGTPQGGVMVPLEHHHHHH | not soluble
10 | MGSDKIHHHHHHMTNTIMEQEARTAPQKIAGQLAANADLMQQLGEKLRAFDPRFVMIVGRGSSDHAGVFAKYLFEIEVGVPTFAAAPSVASVYGKTLKLEGGLVIVISQSGRSPDILAQARMAKNAGAFCVALVNDETAPIKDIVDVVVPLRAGEEKAVAATKSYLATLSAILQLASAWTQSESLAAAVSSLPQALQTAVVAEPQLTPESVENVKNLVVLGRGLGYAVSKEIALKLKEVCSIHAEAFSSAEFLHGPVTLVEKKLTIVDVCIGDESYASHIEQIENVSQRGADLVHLNQTSTDIHPRVAPLALLQRFYIDVAAVAIARGIDPDQPAGLKKVTQTL | not soluble
11 | MSHHRSAFFISDRTGITAESLGHTLLTQFDALDFQRETVPFVDTVEKARALAERISEIAERDHLRPLVFTSIVNPEVREALRLNNVVLIDFFESFIGHLEIELGQKATLTVGKAHGMVNEEKYDHRIEAVNFSLNHDDGVKLKDLHEADVILVGVSRSGKTPTCLYLALQYGIRAANYPLTPEDLGSPTLPKMLLPFKDKMFGLTIDPNRLHHIRSERRPDSKYASMDNCRREVNEAESMFRHHGVPFISTTHKSIEEIASTIMHKAALGRKFLEHHHHHH | soluble
12 | MPTITLRLELHNPTKVKQDMYERMTEVNTAFANWLLNHPELNQATSKIFKEFSPQRFPSAVVNQTIREVKSQKKNQKTKKFRTFWCCFNNQNVKVEKKGAFYTVSFPTLEKRIGVPVVTRPYQEAWLNRLLDGTAKQGAAKLYKKRTKWYLAIAITFEVKPRHETKVMGVDLGLRYIAVASVGTKSLFFKGSQCAFIRRRYAALRRTLGKAKKLQMIRKIGRKESRWMKDQNHKISRQIVNVALANGVGVIRMEALTGIRKRAKSAKEAGRSLHSWAFHQLQTMIAYKAEMAGIRVEWVKPTYTSQTCKCGHREKGNRNGIHFQCKQCGYTLHADLNGAINIAKAISGFVAEPSALVTGAPPIGVHRNPMGRGDDTPLNLGVVRTRNG | not soluble
13 | MASISRARQVELLLVADASMARKYGRGLQHYLLTLASIANRLYSHASIENHIRLAVVKVVVLGDKDKSLEVSKNAATTLKNFCKWQHQHNQLGDDHEEHYDAAILFTREDLCGHHSCDTLGMADVGTICSPERSCAVIEDDGLHAAFTVAHEIGHLLGLSHDDSKFCEETFGSTEDKRLMSSILTSIDASKPWSKCTSATITEFLDDGHGNCLLDLPRKQI | soluble
14 | MGSDKIHHHHHHMLRGKDATLAAIINIILDEEPETQDDIADRLGVSRRYVAKLLKPLVDGGAIMHPYVVNLEKLKEFEEYIETDRYFKEIYETFDRMGTNVIQNIDKVFDSLKTHDLDIAKSIILEDYALNRMEDEVNLVIKMKASKYMDMNSLMQVSNIAANIERCGDYLSNIAEEVVNGLLVDPAIKKEVFEIKEIISKMFAHAMNMVKSKTIETEIYELEGNLHKKLDTMMEKIAEHPDENLKDINQFIQFGMFLKDVERFGDRCLKIFELGREFHHNIPKNVTTPEYVRNLK | not soluble
15 | MKCKVYTVVVPNVQSATLLPIIREKVKPDSIVYTDTFRSYDVLDVSEFSHFRINHSTHFAENHNYINGIGNFWNHAKRHLQKFNGIPKEHFELYLKECEWRFNNSEIKSQISILKQLVKGSLVLEHHHHHH | not soluble
16 | MPENLQLVIITGMSGAGKTVAVQSFEDMGYFCIDNLPPSLIPKFWELIKESGKVTKIALVIDLRSRTFFREIQDMLVELENTNFIDTTILFLDATDEELVSRYKETRRAHPMAMDGLVTEGIRKERAMLEEIKADAQLVIDTTDLSPRQLRERLNKELATRETHEFRVEMVSFGFKYGLPIDADIVMDVRFLPNPHYIDELRPLTGMDQPVYDYVMGFPETDEFYTKFIDLLRTVLPGYKKEGKSSVTIAIGCTGGQHRSVALTERVGAELKEEDYHVNITHRDRLKRKETVNRS | not soluble
17 | MHFKTKLKNRRSEVNTCLCIGLDPDEDDIKNFMKNEEQNGYKNIKNNMNSNNNGIENIIKIGKEILLTDGENIQNLSEEDKFFYFFNHFCFYIINNTKEYALVYKMNFAFYIPYGSVGINALKNVFDYLNSMNIPTMLDMKINDIGNTVKNYRKFIFEYLKSDSCTINVYMGTNMLKDICFDYEKNKYYSAYVLIKTTNKDSFIFQNELSINDKQAYIVMADETQKMATELKIEQNNEFIGFVVGSNAFEEMKIIRNKFPDSYILSPGIGAQNGDLYKTLKNGYNKDYEKLLINVGRAITKSPDPKKSSESYYNQIIQIFKDIENGDNIEQV | soluble
18 | MAHHHHHHSLENKGTNLTPEQALDRLEELYEQSVNALREAIADYVDNGTLPDPHARLNGLFVYPSLSVSWDGATPNPPKTRAFGRFTHPGCYTTTVTRPALFRAYLLEQLNLVYHDYGAHIAVEASHHEIPYPYVIDGSALTLDRSMSAGLTRHFPTTELAQIGDETADGLFHPGEFYPLSHFDARRVDFSLARLRHYTGTPVEHFQPFVLFTNYTRYVDEFVRWGCSQILDPDSPYIALSCAGGIWITAETEAPEEAISDLAWKKHQMPAWHLVTADGQGITLVNIGVGPSNAKTICDHLAVLRPDVWLMIGHCGGLRESQAIGDYVLAHAYLRDDHVLDAVLPPDIPIPSIAEVQRALYDATKAVSGMPGEEVKQRLRTGTVVTTDDRNWELRYSASALRFNLSRAVAIDMESATIAAQGYRFRVPYGTLLCVSDKPLHGEIKLPGQANRFYEGAISEHLQIGIRAIDLLRAEGDRLHSRKEG | soluble
19 | MNNETTTLISLKEAMKRVDHKLQALETQFKELDFTKDNLMQKFEHHSKALASQAAQDEMWTAVRALQLTSMELNILYSYVIEVLICLHTRVLEKLPDLVRGLPTLASVLRRKVKNKRVRVVWESILEECGLQEGDITALCTFFIARGNKAEHYTAKVRQMYIRDVTFLITNMVKNQALQDSLLRAVQVIEKGKAVRTPEKQKSSLEELIPSVKN | soluble
20 | MSLIRSMTAYARREIKGEWGSATWEMRSVNQRYLETYFRLPEQFRSLEPVVRERIRSRLTRGKVECTLRYEPDVSAQGELILNEKLAKQLVTAANWVKMQSDEGEINPVDILRWPGVMAAQEQDLDAIAAEILAALDGTLDDFIIARETEGQALKVLIEQRLEGVTAEVAKVRAHMPEILQWQRERLIAKLEDAQVQLENNRLEQELVLLAQRIDVAEELDRLEAHAKETYNILKKKEAVGRRLDFMMQEFNRESNTLASKSINAEVTNSAIELKVLIEQMREQIQNIEEGHHHHHH | soluble
21 | MAAMFSNTRSVASSSGHIVEFKAGRSRLEAGSGDTMRKVVAEPKKGLVFIKQSNDMLIHFCWKDRETGAVVDDLIIFPDDAEFKAVPGCPDGKVYMLKFKSGDMKLFWIQDSTPDVDKDLVKKVTDALNKPPTSRPAASRSAGSNANTDRQSAGGSLISSSDMNAPLGGIDQGQLMSLIQSLQGGNSDTLPISSVPRGEDASSEADCEPSTNAAEEGSSNPLSLNNPAIQQIFNNLGRSQKKEVAVSLATALSNETVAEVARNHAEELAPHLPTSDDPARELSETVRTPQFRQAADTLGHALQTGQLGPVVAQFGMDEATVGSANQGDIRGFAANLTKAEGGEDAAKTQNSDDDATREPEPKRNRPDNEDMDVD | not soluble

From the DeepSol protein solubility set
